Assay results published in patent publication US20220162261A1 (published 2022).
One block for each binder: values may come before it. Bridge positions count the residues as written; N and C are the ends. Square brackets hold non-standard residues; d marks the D form. Ends that are not written are not given here. Phe(4-tBu) = CC(C)(C)c1ccc(C[C@H](N)C(=O)O)cc1; 2Nal = N[C@@H](Cc1ccc2ccccc2c1)C(=O)O; NMeR = CN[C@@H](CCCNC(=N)N)C(=O)O; β3hE = N[C@@H](CCC(=O)O)CC(=O)O; Pen = CC(C)(S)[C@H](N)C(=O)O

Legend:
[1] = biological target: T1, human α4β7 integrin on cells (human, UniProt P13612 34-1032; P26010 20-798); experiment: RPMI8866/MAdCAM cell adhesion
T1 construct: whole, on cells; also called α4β7 cell (Hu); RPMI8866 cells

[2] = biological target: T1, human α4β7 integrin on cells; experiment: α4β7 T cells
[3] = biological target: T2, mouse α4β7 integrin on TK1 cells (mouse, UniProt Q00651 41-1039; P26011 20-806); experiment: TK1 cell adhesion to MAdCAM-1
T2 construct: whole, on cells; also called α4β7 cell (Mu); Cell Adhesion α4β7 Mouse

[4] = biological target: T1, human α4β7 integrin on cells; experiment: RPMI8866 cell adhesion to MAdCAM-1
[5] = biological target: T3, α4β1 (R&D Systems #5668-A4) (UniProt P13612 34-970; P05556 21-728, limits assumed); experiment: competition ELISA vs VCAM-1, 1 mM Mg
T3 construct: bought; also called soluble α4β1
Method: The solution was removed by shaking and then blocked with 250 ul of 1% BSA in 1×PBS per well. The wells were then incubated at room temperature for 1 hr with shaking. Each well was then washed once with wash buffer (50 mM Tris-HCl pH7.6, 100 mM NaCL, 1 mM MnCl2 or MgCl2, 0.05% Tween-20). 25 ul of serial dilutions of peptides starting at […] in assay buffer (Assay buffer: 50 mM Tris-HCl pH7.6, 100 mM NaCl, 1 mM MnCl2 or MgCl2, 0.05% Tween-20) was added to each well. Additionally, 25 ul of α4β1 (R&D Systems #5668-A4) was added to each well at a fixed concentration of 120 nM. The final peptide and α4β1 concentrations were […] and 60 nM, respectively. The plates were then incubated at 37° C. for 2 hr. The solution was then removed by shaking, and each well was washed three times with wash buffer. 50 ul of 9F10 antibody at 4 ug/ml (purified mouse anti-human CD49d, BD Bioscience Cat #555502) was then added to each well, and the plate was incubated at room temperature for 1 hr with shaking. The solution was again removed by shaking, and each well was washed three times with wash buffer. 50 ul of peroxidase-conjugated AffiniPure Goat anti-mouse IgG (Jackson immune research cat #115-035-003) diluted in 1:5000 in assay buffer was added to each well. The plate was incubated at room temperature for 30 min with shaking. […] The reaction was stepped with 2N H₂SO₄ and absorbance was read at 450 nm. […]

[6] = biological target: T4, human αLβ2 integrin on cells (human, UniProt P20701 26-1170; P05107 23-769); experiment: memory T cell adhesion to ICAM-1
T4 construct: whole, on cells; also called aLβ2

[7] = biological target: T5, human α4β1 integrin on cells (human, UniProt P13612 34-1032; P05556 21-798); experiment: memory T cell adhesion to VCAM-1
T5 construct: whole, on cells; also called α4β1 cell; Jurkat cells

[8] = biological target: T6, rh integrin α4β7 (R&D Systems #5397-A30) (human, UniProt P13612 34-970; P26010 20-723); experiment: competition ELISA vs MAdCAM-1, 1 mM Mg
T6 construct: bought; coated on a nickel coated plate; also called immobilized α4β7; immobilized α4β7 integrin protein

[9] = biological target: T1, human α4β7 integrin on cells; experiment: memory T cell adhesion to MAdCAM-1, average of 4 donors
[10] = biological target: T1, human α4β7 integrin on cells; experiment: PBMC memory T cell adhesion
[11] = biological target: T2, mouse α4β7 integrin on TK1 cells; experiment: TK1 cell adhesion to MAdCAM-1; remark: listed apart in the source
[12] = biological target: T6, rh integrin α4β7 (R&D Systems #5397-A30); experiment: competition ELISA vs MAdCAM-1
[13] = biological target: T5, human α4β1 integrin on cells; experiment: Jurkat cell adhesion to VCAM-1
[14] = biological target: T1, human α4β7 integrin on cells; experiment: RPMI8866 cell adhesion to MAdCAM-1; remark: listed apart in the source
[15] = biological target: T1, human α4β7 integrin on cells; experiment: PBMC memory T cell adhesion; acetate salt
[16] = biological target: T3, α4β1 (R&D Systems #5668-A4); experiment: competition ELISA vs VCAM-1; acetate salt
[17] = biological target: T2, mouse α4β7 integrin on TK1 cells; experiment: TK1 cell adhesion to MAdCAM-1; acetate salt
[18] = biological target: T6, rh integrin α4β7 (R&D Systems #5397-A30); experiment: competition ELISA vs MAdCAM-1; acetate salt
[19] = biological target: T1, human α4β7 integrin on cells; experiment: RPMI8866 cell adhesion to MAdCAM-1; acetate salt
[20] = biological target: human α4β7 integrin on cells (human) (UniProt P13612); experiment: PBMC memory T cell adhesion
[21] = biological target: α4β1 (R&D Systems #5668-A4) (UniProt P13612); experiment: competition ELISA vs VCAM-1
[22] = biological target: mouse α4β7 integrin on TK1 cells (mouse) (UniProt Q00651); experiment: TK1 cell adhesion to MAdCAM-1
[23] = biological target: rh integrin α4β7 (R&D Systems #5397-A30) (human) (UniProt P13612); experiment: competition ELISA vs MAdCAM-1
[24] = biological target: human α4β1 integrin on cells (human) (UniProt P13612); experiment: Jurkat cell adhesion to VCAM-1
[25] = biological target: human α4β7 integrin on cells (human) (UniProt P13612); experiment: RPMI8866 cell adhesion to MAdCAM-1
[26] = biological target: human α4β7 integrin on cells (human) (UniProt P13612); experiment: FACS, human whole blood, Basophils
[27] = biological target: human α4β7 integrin on cells (human) (UniProt P13612); experiment: FACS, human whole blood, Monocytes
[28] = biological target: human α4β7 integrin on cells (human) (UniProt P13612); experiment: FACS, human whole blood, Eosinophils
[29] = biological target: human α4β7 integrin on cells (human) (UniProt P13612); experiment: FACS, human whole blood, Neutrophils
[30] = biological target: human α4β7 integrin on cells (human) (UniProt P13612); experiment: FACS, human whole blood, CD19+ B cells
[31] = biological target: human α4β7 integrin on cells (human) (UniProt P13612); experiment: FACS, human whole blood, CD4 naïve T cells
[32] = biological target: human α4β7 integrin on cells (human) (UniProt P13612); experiment: FACS, human whole blood, CD8 naïve T cells
[33] = biological target: human α4β7 integrin on cells (human) (UniProt P13612); experiment: FACS, human whole blood, CD4 memory T cells
[34] = biological target: human α4β7 integrin on cells (human) (UniProt P13612); experiment: FACS, human whole blood, CD8 memory T cells
[35] = biological target: human α4β7 integrin on cells (human) (UniProt P13612); experiment: FACS, human whole blood, NK cells CD16+ 56+
[36] = biological target: soluble α4β7 integrin (UniProt P13612); experiment: SPR, binder on streptavidin chip, soluble α4β7
[37] = biological target: T7, soluble α4β7 integrin (UniProt P13612 34-970; P26010 20-723, limits assumed); experiment: SPR
T7 construct: analyte of the SPR experiment

[38] = biological target: T7, soluble α4β7 integrin; experiment: SPR, binder on streptavidin chip, soluble α4β7

T2 sequence (Q00651 41-1039, chain 1 of 2): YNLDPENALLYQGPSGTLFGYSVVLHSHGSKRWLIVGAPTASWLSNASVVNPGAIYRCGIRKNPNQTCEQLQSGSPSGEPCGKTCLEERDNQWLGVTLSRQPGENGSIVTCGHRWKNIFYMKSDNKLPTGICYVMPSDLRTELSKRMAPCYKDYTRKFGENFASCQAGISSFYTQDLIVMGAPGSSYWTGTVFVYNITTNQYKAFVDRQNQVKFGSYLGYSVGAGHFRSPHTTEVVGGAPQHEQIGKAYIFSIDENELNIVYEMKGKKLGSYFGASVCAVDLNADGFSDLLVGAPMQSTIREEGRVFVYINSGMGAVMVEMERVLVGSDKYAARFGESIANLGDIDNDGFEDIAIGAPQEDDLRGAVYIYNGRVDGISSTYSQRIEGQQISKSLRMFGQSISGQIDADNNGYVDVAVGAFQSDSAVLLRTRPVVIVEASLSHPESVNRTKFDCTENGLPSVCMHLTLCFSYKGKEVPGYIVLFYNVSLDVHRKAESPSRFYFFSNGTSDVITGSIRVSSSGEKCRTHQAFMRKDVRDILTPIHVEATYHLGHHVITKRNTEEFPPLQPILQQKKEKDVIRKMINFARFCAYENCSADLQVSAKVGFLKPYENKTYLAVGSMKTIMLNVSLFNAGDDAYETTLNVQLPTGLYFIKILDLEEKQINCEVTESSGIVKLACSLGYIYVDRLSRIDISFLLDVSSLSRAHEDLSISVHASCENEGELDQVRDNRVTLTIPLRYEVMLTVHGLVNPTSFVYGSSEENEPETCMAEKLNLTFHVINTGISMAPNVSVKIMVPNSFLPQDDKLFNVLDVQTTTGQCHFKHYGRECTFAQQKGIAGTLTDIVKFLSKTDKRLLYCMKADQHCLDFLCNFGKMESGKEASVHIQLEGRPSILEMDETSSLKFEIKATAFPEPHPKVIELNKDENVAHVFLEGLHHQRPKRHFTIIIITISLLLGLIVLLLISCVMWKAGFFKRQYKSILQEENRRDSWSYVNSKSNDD
T2 sequence (P26011 20-806, chain 2 of 2): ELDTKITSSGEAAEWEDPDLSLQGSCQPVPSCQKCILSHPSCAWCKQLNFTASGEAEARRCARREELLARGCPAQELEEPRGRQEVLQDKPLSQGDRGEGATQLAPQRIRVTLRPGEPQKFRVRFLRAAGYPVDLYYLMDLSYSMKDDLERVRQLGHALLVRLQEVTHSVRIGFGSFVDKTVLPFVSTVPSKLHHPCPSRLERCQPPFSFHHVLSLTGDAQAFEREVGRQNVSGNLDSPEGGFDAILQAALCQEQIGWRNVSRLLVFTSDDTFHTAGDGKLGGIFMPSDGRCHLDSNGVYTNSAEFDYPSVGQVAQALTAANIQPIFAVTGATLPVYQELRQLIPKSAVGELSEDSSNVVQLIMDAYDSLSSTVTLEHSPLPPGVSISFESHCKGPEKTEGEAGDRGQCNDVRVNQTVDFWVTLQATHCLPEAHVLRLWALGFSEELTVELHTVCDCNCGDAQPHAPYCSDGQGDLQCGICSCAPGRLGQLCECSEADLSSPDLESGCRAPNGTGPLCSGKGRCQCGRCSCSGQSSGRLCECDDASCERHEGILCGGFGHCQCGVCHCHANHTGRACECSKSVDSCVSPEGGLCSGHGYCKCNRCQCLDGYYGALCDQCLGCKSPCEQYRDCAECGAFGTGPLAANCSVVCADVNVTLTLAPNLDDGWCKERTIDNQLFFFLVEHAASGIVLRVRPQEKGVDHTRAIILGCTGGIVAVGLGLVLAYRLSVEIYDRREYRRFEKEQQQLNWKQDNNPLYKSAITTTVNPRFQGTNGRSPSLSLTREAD
Chain of mouse α4β7 integrin on TK1 cells (mouse) (Q00651 41-1039, chain 1 of 2): as the sequence (Q00651 41-1039, chain 1 of 2) above
Chain of mouse α4β7 integrin on TK1 cells (mouse) (P26011 20-806, chain 2 of 2, further chain): as the sequence (P26011 20-806, chain 2 of 2) above
T4 sequence (P20701 26-1170, chain 1 of 2): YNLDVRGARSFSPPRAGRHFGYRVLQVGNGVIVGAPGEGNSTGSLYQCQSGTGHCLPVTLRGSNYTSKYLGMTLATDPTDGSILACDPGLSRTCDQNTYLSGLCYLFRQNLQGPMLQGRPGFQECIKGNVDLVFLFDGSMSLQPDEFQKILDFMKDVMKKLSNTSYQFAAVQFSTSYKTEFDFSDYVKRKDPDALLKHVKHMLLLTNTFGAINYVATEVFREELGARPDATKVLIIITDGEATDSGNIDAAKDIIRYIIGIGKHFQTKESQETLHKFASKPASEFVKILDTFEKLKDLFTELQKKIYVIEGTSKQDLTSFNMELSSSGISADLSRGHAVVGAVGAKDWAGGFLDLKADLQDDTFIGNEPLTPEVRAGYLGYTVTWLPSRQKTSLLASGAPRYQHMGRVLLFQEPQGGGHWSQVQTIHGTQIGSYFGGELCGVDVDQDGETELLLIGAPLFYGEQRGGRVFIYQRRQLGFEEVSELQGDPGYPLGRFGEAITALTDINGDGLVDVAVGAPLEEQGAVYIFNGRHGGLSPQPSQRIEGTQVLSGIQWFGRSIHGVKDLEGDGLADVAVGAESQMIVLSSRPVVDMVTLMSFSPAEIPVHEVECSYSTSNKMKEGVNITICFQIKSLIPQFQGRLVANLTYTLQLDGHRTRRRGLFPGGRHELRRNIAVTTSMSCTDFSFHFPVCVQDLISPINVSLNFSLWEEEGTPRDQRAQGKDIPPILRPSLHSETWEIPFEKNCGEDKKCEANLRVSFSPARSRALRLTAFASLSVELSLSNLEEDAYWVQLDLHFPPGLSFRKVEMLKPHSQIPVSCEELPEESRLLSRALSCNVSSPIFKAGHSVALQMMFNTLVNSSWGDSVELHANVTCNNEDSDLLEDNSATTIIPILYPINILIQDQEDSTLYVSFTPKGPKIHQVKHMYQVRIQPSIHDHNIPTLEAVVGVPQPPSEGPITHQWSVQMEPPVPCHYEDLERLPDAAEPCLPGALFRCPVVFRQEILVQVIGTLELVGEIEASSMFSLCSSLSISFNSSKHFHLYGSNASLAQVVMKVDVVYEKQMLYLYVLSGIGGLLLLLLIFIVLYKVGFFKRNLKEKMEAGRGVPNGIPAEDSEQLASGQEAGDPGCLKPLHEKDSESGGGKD
T4 sequence (P05107 23-769, chain 2 of 2): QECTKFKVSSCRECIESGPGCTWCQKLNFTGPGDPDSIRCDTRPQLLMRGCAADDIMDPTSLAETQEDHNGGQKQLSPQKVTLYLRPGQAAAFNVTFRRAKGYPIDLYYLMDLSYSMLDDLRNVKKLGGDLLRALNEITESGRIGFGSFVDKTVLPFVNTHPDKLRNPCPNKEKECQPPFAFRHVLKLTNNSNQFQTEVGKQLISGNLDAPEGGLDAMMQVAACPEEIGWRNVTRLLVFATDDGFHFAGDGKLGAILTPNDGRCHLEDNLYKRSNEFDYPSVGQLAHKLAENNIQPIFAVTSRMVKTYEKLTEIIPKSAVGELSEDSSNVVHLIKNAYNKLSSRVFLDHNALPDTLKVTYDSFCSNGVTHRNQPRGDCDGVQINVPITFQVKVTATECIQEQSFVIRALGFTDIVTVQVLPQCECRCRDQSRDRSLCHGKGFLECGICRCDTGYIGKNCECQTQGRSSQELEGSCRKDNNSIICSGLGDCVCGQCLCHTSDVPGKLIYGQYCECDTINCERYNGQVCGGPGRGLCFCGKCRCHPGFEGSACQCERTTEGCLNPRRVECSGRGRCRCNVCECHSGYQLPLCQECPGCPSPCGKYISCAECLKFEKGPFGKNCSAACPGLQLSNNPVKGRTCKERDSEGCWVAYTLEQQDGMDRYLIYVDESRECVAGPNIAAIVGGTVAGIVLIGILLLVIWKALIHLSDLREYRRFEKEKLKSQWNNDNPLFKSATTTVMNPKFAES

B1: Peptide X Alexa 647 conjugate (peptide)
peptide: Ac-[Pen][NMeR]SDTL[Pen][Phe(4-tBu)][β3hE][dK]
modifications: disulfide 1-7; not fully specified (residue 10); also: Alexa 647 label, position not given here
IC50 [1]: 0.15 nM

B2: Peptide X (peptide)
peptide: Ac-[Pen][NMeR]SDTL[Pen][Phe(4-tBu)][β3hE][dK]
modifications: disulfide 1-7; not fully specified (residue 10); printed as [Ac-Pen-(N-Me-Arg)-Ser-Asp-Thr-Leu-Pen-Phe(4-tBu)-(β-homoGlu)-(D-Lys)]2-DIG; also: homodimer via DIG linker on D-Lys side chains
notes: also called Compound X
IC50 [2]: 1 nM | IC50 [3]: 0.5 nM | IC50 [4]: 0.72 nM | IC50 [5]: > 10000 nM | IC50 [6]: > 100000 nM | IC50 [7]: > 100000 nM | IC50 [8]: 3 nM | IC50 [9]: 1.3 nM

B6: Peptide X-biotin (peptide)
peptide: Ac-[Pen][NMeR]SDTL[Pen][Phe(4-tBu)][β3hE][dK]
modifications: disulfide 1-7; not fully specified (residue 10); also: dimer of two subunits joined by a linker at D-Lys10, biotin attached via PEG linker, position not given here
fold lower KD than biotin-labeled vedolizumab [37]: 3.8 fold | Kd [38]: 15.4 nM | koff [38]: 1.73e-05 s⁻¹ | kon [38]: 1120 M⁻¹ s⁻¹

Second part, the binder after the results:

IC50 [10]: ≤ 10 nM | IC50 [11]: ≤ 10 nM | IC50 [12]: ≤ 10 nM | IC50 [13]: > 100000 nM | IC50 [14]: ≤ 10 nM | IC50 [15]: ≤ 10 nM | IC50 [16]: > 500 nM | IC50 [17]: ≤ 10 nM | IC50 [18]: ≤ 10 nM | IC50 [19]: ≤ 10 nM
B3: SEQ ID NO: 132 (peptide)
peptide: Ac-[Pen][NMeR]SDTL[Pen][Phe(4-tBu)][β3hE][dK]-NH2
modifications: disulfide 1-7; not fully specified (residue 10); printed as (Ac Pen N-Me-R S D T L Pen F(4tBu) b-H-E k NH2)2 DIG, disulfide Pen-Pen; also: homodimer, two subunits joined by DIG linker
notes: the second listing is the acetate salt

IC50 [20]: 517 nM | IC50 [21]: 200 nM | IC50 [22]: 60 nM | IC50 [23]: 11 nM | IC50 [24]: > 100000 nM | IC50 [25]: 40 nM
B4: SEQ ID NO: 210 (peptide)
peptide: Ac-[Pen][NMeR]SDTL[Pen][2Nal]E[dK]-NH2
modifications: disulfide 1-7
SMILES: CC(=O)N[C@@H]1C(=O)N(C)[C@@H](CCCNC(=N)N)C(=O)N[C@@H](CO)C(=O)N[C@@H](CC(=O)O)C(=O)N[C@@H]([C@@H](C)O)C(=O)N[C@@H](CC(C)C)C(=O)N[C@H](C(=O)N[C@@H](Cc2ccc3ccccc3c2)C(=O)N[C@@H](CCC(=O)O)C(=O)N[C@H](CCCCN)C(N)=O)C(C)(C)SSC1(C)C

Percent positive staining [26]: 86% | Percent positive staining [27]: 7% | Percent positive staining [28]: 91% | Percent positive staining [29]: 0.45% | Percent positive staining [30]: 85% | Percent positive staining [31]: 55% | Percent positive staining [32]: 53% | Percent positive staining [33]: 22% | Percent positive staining [34]: 36% | Percent positive staining [35]: 42% | Half-life for dissociation [36]: 43 min | Kd [36]: 59.5 nM | koff [36]: 0.000266 s⁻¹ | kon [36]: 4470 M⁻¹ s⁻¹
B5: biotin-labeled vedolizumab antibody (antibody, INN chains, looked up, V domains shown)
VH: QVQLVQSGAEVKKPGASVKVSCKGSGYTFTSYWMHWVRQAPGQRLEWIGEIDPSESNTNYNQKFKGRVTLTVDISASTAYMELSSLRSEDTAVYYCARGGYDGWDYAIDYWGQGTLVTVSS
VL: DVVMTQSPLSLPVTPGEPASISCRSSQSLAKSYGNTYLSWYLQKPGQSPQLLIYGISNRFSGVPDRFSGSGSGTDFTLKISRVEAEDVGVYYCLQGTHQPYTFGQGTKVEIKR
modifications: biotin label
